Data on 1 molecule can be found in PMC7472727, “Novel Escherichia coli RNA Polymerase Binding Protein Encoded by Bacteriophage T5”.

The target of the data set is RNAP holoenzyme with [211Cys-TMR] sigma70 (RNAP beacon);gpT5.026 (Escherichia coli;Escherichia phage T5, UniProt P0A7Z4;P0A8V2;P0A8T7;P0A800;P00579;Q6QGR1 1-329;1-1342;1-1407;2-91;1-613;1-153, S211C|). As to the kind of experiment: fluorescence RNAP beacon titration; 100 nM gpT5.026 preincubated 15 min; 40 mM Tris-HCl pH 8.0, 100 mM NaCl, 5% glycerol, 1 mM DTT, 10 mM MgCl2, 0.02% Tween 20, 25 C; 1 nM labeled RNAP holoenzyme. The following applies: protein: recombinant;recombinant; chain copies: 2;1;1;1;1;1.

B1: [-38/-12] upstream double-stranded probe (dsDNA)
DNA 1: TATTTGACATCAGGAAAATTTTTTGGT
DNA 2: ACCAAAAAATTTTCCTGATGTCAAATA
In the case of B1, the binding signal is ~3 fold higher affinity than without gpT5.026.
